Abundance fitness data for 34 variants are collected here from the Human Domainome abundance scans (Beltran et al. 2025).

To fix the notation:
B1: Transcriptional regulator ERG, residues 117 to 197; numbered along this chain, P11308 (parent)
chain: NMTTNERRVIVPADPTLWSTDHVRQWLEWAVKEYGLPDVNILLFQNIDGKELCKMTKDDFQRLTPSYNADILLSHLHYLRE

± gives the uncertainty stated by the source.

The variants in this series derive from B1. In words: abundance fitness (aPCA) (normalised: wild type 0, dead -1); higher = more abundant; growth selection in yeast, the domain comes from the species named. To be noted: Homo sapiens.
Consider NMTTNERRVIVPADPTLWSTDHVRQWLEAAVKEYGLPDVNILLFQNIDGKELCKMTKDDFQRLTPSYNADILLSHLHYLRE [W29A], for which the abundance fitness was 0.101 ± 0.042.
Under NMTTNERRVIVPADPTLWSTDHVRQWLECAVKEYGLPDVNILLFQNIDGKELCKMTKDDFQRLTPSYNADILLSHLHYLRE [W29C] stands 0.017 ± 0.06; under NMTTNERRVIVPADPTLWSTDHVRQWLEGAVKEYGLPDVNILLFQNIDGKELCKMTKDDFQRLTPSYNADILLSHLHYLRE [W29G], 0.111 ± 0.03; under NMTTNERRVIVPADPTLWSTDHVRQWLERAVKEYGLPDVNILLFQNIDGKELCKMTKDDFQRLTPSYNADILLSHLHYLRE [W29R], -0.006 ± 0.032.
Under NMTTNERRVIVPADPTLWSTDHVRQWLEDAVKEYGLPDVNILLFQNIDGKELCKMTKDDFQRLTPSYNADILLSHLHYLRE [W29D] stands 0.21 ± 0.057; under NMTTNERRVIVPADPTLWSTDHVRQWLEVAVKEYGLPDVNILLFQNIDGKELCKMTKDDFQRLTPSYNADILLSHLHYLRE [W29V], -0.143 ± 0.045.
Under NMTTNERRVIVPADPTLWSTDHVRQWLEIAVKEYGLPDVNILLFQNIDGKELCKMTKDDFQRLTPSYNADILLSHLHYLRE [W29I] stands -0.07 ± 0.083; under NMTTNERRVIVPADPTLWSTDHVRQWLESAVKEYGLPDVNILLFQNIDGKELCKMTKDDFQRLTPSYNADILLSHLHYLRE [W29S], 0.11 ± 0.044; under NMTTNERRVIVPADPTLWSTDHVRQWLEYAVKEYGLPDVNILLFQNIDGKELCKMTKDDFQRLTPSYNADILLSHLHYLRE [W29Y], 0.006 ± 0.084.
In the case of NMTTNERRVIVPADPTLWSTDHVRQWLEFAVKEYGLPDVNILLFQNIDGKELCKMTKDDFQRLTPSYNADILLSHLHYLRE [W29F], the abundance fitness was -0.098 ± 0.11.
To NMTTNERRVIVPADPTLWSTDHVRQWLEKAVKEYGLPDVNILLFQNIDGKELCKMTKDDFQRLTPSYNADILLSHLHYLRE [W29K] belongs 0.048 ± 0.058.
Under NMTTNERRVIVPADPTLWSTDHVRQWLETAVKEYGLPDVNILLFQNIDGKELCKMTKDDFQRLTPSYNADILLSHLHYLRE [W29T] stands 0.065 ± 0.055.
Under NMTTNERRVIVPADPTLWSTDHVRQWWEWAVKEYGLPDVNILLFQNIDGKELCKMTKDDFQRLTPSYNADILLSHLHYLRE [L27W] stands -0.891 ± 0.14.
For the variant NMTTNERRVIVPADPTLWSTDHVRQWCEWAVKEYGLPDVNILLFQNIDGKELCKMTKDDFQRLTPSYNADILLSHLHYLRE [L27C], the abundance fitness was -0.47 ± 0.11.
To NMTTNERRVIVPADPTLWSTDHVRQWREWAVKEYGLPDVNILLFQNIDGKELCKMTKDDFQRLTPSYNADILLSHLHYLRE [L27R] belongs -0.912 ± 0.092.
To NMTTNERRVIVPADPTLWSTDHVRQWPEWAVKEYGLPDVNILLFQNIDGKELCKMTKDDFQRLTPSYNADILLSHLHYLRE [L27P] belongs -0.593 ± 0.14; to NMTTNERRVIVPADPTLWSTDHVRQWKEWAVKEYGLPDVNILLFQNIDGKELCKMTKDDFQRLTPSYNADILLSHLHYLRE [L27K], -0.623 ± 0.12; to NMTTNERRVIVPADPTLWSTDHVRQWYEWAVKEYGLPDVNILLFQNIDGKELCKMTKDDFQRLTPSYNADILLSHLHYLRE [L27Y], -0.584 ± 0.15.
To NMTTNERRVIVPADPTLWSTDHVRQWSEWAVKEYGLPDVNILLFQNIDGKELCKMTKDDFQRLTPSYNADILLSHLHYLRE [L27S] belongs -1 ± 0.12; to NMTTNERRVIVPADPTLWSTDHVRQWEEWAVKEYGLPDVNILLFQNIDGKELCKMTKDDFQRLTPSYNADILLSHLHYLRE [L27E], -0.965 ± 0.12; to NMTTNERRVIVPADPTLWSTDHVRQWFEWAVKEYGLPDVNILLFQNIDGKELCKMTKDDFQRLTPSYNADILLSHLHYLRE [L27F], -0.493 ± 0.11.
Take NMTTNERRVIVPADPTLWSTDHVRQWDEWAVKEYGLPDVNILLFQNIDGKELCKMTKDDFQRLTPSYNADILLSHLHYLRE [L27D]: the abundance fitness was -0.648 ± 0.13.
Under NMTTNERRVIVPADPTLWSTDHVRQWIEWAVKEYGLPDVNILLFQNIDGKELCKMTKDDFQRLTPSYNADILLSHLHYLRE [L27I] stands -0.085 ± 0.09; under NMTTNERRVIVPADPTLWSTDHVRQWTEWAVKEYGLPDVNILLFQNIDGKELCKMTKDDFQRLTPSYNADILLSHLHYLRE [L27T], -0.628 ± 0.098.
To NMTTNERRVIVPADPTLWSTDHVRQWQEWAVKEYGLPDVNILLFQNIDGKELCKMTKDDFQRLTPSYNADILLSHLHYLRE [L27Q] belongs -0.658 ± 0.19; to NMTTNERRVIVPADPTLWSTDHVRQWNEWAVKEYGLPDVNILLFQNIDGKELCKMTKDDFQRLTPSYNADILLSHLHYLRE [L27N], -1.02 ± 0.29; to NMTTNERRVIVPADPTLWSTDHVRQWMEWAVKEYGLPDVNILLFQNIDGKELCKMTKDDFQRLTPSYNADILLSHLHYLRE [L27M], -0.153 ± 0.056.
As for NMTTNERRVIVPADPTLWSTDHVRQWLEWIVKEYGLPDVNILLFQNIDGKELCKMTKDDFQRLTPSYNADILLSHLHYLRE [A30I], the abundance fitness is -0.164 ± 0.11.
Under NMTTNERRVIVPADPTLWSTDHVRQWLEWFVKEYGLPDVNILLFQNIDGKELCKMTKDDFQRLTPSYNADILLSHLHYLRE [A30F] stands -0.403 ± 0.14.
To NMTTNERRVIVPADPTLWSTDHVRQWLEWCVKEYGLPDVNILLFQNIDGKELCKMTKDDFQRLTPSYNADILLSHLHYLRE [A30C] belongs -0.117 ± 0.062.
Turning to NMTTNERRVIVPADPTLWSTDHVRQWLEWGVKEYGLPDVNILLFQNIDGKELCKMTKDDFQRLTPSYNADILLSHLHYLRE [A30G], the abundance fitness is -0.181 ± 0.04.
Under NMTTNERRVIVPADPTLWSTDHVRQWLEWEVKEYGLPDVNILLFQNIDGKELCKMTKDDFQRLTPSYNADILLSHLHYLRE [A30E] stands -0.051 ± 0.054.
To NMTTNERRVIVPADPTLWSTDHVRQWLEWHVKEYGLPDVNILLFQNIDGKELCKMTKDDFQRLTPSYNADILLSHLHYLRE [A30H] belongs -0.108 ± 0.092.
Under NMTTNERRVIVPADPTLWSTDHVRQWLEWDVKEYGLPDVNILLFQNIDGKELCKMTKDDFQRLTPSYNADILLSHLHYLRE [A30D] stands -0.884 ± 0.22.
